Experimental data: article PMC3428924

Tests used:
[1] = biological target: elongation factor 1B beta (eEF1Bβ) of C. fasciculata (C. fasciculata (endogenous in choanomastigotes)); assay: SEC
[2] = biological target: elongation factor 1B alpha (eEF1Bα) of C. fasciculata (C. fasciculata (endogenous in choanomastigotes)); assay: SEC

| stoichiometry N [1] | stoichiometry N [2] | Substance |
| --- | --- | --- |
| 1 α per β | – | elongation factor 1B alpha (eEF1Bα) of C. fasciculata (natural protein) |
| 2 γ per β | 2 γ per α | elongation factor 1B gamma (eEF1Bγ) of C. fasciculata (natural protein) |
